Series [1] concerns recombinant Caspase-6 (Origene, Cat. TP760261).
Series [2] deals with purified Bax-HA expressed in HEK293T cells.
Series [3] concerns purified Bid-HA expressed in HEK293T cells.
The subject of series [4] is T1, recombinant Bid (R&D Systems, Cat. 846-BD-50).
T1 sequence: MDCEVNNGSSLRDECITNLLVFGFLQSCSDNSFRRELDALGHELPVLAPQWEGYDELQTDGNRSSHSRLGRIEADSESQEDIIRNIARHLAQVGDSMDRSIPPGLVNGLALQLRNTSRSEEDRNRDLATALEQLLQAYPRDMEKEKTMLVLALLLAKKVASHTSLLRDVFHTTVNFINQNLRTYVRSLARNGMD

Series [5] deals with purified caspase-6-myc expressed in HEK293T cells.

Chain of recombinant AMPKα1β1γ1 active kinase (Q13131 whole entry): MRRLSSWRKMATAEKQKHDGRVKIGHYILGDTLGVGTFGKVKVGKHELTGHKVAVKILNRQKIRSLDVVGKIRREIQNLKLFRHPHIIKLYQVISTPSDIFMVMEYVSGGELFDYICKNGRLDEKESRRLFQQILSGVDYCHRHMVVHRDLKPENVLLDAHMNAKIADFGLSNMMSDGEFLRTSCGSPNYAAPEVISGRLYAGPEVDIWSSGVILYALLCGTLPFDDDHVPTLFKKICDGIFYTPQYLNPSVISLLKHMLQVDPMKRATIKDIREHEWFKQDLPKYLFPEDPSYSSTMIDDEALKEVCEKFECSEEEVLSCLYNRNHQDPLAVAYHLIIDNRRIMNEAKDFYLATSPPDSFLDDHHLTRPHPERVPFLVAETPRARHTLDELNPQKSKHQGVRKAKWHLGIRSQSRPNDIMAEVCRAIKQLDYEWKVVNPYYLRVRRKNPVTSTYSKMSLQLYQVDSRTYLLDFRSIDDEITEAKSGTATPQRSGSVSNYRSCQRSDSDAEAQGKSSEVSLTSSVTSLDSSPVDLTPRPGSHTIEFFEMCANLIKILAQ
Chain of recombinant AMPKα1β1γ1 active kinase (Q9Y478 2-270, further chain): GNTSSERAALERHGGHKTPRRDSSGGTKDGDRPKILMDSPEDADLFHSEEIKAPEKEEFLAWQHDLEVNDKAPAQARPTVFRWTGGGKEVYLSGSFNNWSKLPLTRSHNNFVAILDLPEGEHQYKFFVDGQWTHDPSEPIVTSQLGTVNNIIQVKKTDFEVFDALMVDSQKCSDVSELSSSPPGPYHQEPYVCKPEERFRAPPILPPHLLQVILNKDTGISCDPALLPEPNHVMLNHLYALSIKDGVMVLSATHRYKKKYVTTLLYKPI
Chain of recombinant AMPKα1β1γ1 active kinase (P54619 whole entry, further chain): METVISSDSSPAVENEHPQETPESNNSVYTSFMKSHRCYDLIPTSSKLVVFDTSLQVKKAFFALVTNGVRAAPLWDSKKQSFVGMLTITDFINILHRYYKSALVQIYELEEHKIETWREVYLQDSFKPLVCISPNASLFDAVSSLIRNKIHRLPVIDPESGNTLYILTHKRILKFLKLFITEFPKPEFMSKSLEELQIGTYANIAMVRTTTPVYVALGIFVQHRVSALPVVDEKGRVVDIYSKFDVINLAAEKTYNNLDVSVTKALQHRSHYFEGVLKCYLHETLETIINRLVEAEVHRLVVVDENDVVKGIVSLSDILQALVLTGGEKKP
Chain of recombinant AMPKα2β1γ1 active kinase (P54646 whole entry): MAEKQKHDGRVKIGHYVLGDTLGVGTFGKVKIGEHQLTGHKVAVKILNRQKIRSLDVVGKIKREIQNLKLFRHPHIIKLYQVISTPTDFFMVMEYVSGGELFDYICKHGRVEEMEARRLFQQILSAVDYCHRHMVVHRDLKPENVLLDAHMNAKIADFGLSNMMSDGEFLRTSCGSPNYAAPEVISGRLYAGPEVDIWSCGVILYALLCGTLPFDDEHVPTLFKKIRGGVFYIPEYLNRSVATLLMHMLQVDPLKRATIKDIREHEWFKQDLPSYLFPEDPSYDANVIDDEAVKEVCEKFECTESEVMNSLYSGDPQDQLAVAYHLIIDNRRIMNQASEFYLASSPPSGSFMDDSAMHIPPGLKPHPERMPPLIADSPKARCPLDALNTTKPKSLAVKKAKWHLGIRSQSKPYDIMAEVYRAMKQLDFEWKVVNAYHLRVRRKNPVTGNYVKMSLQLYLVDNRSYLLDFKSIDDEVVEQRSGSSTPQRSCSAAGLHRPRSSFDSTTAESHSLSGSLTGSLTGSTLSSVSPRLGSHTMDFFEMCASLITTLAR
Chain of recombinant AMPKα2β1γ1 active kinase (Q9Y478 2-270, further chain): as the sequence (Q9Y478 2-270, further chain) above
Chain of recombinant AMPKα2β1γ1 active kinase (P54619 whole entry, further chain): as the sequence (P54619 whole entry, further chain) above

Consider active caspase-3, for which, in series [1], the “in vitro cleavage assay” value was “procaspase-6 was directly cleaved by caspase-3 and -7, but not caspase-8 or -9”.
Take active caspase-6: the “in vitro cleavage assay” value in series [2] is “active caspase-6 cleaved purified Bcl2 family protein Bid (BH3 interacting-domain death agonist), but not Bax (Bcl2 associated X) in vitro”; in series [3] it was “active caspase-6 cleaved purified Bcl2 family protein Bid (BH3 interacting-domain death agonist), but not Bax (Bcl2 associated X) in vitro”; in series [4], “Active caspase-6 cleaves Bid to generate two cleaved peptide fragments”.
With active caspase-7, the “in vitro cleavage assay” value in series [1] was “procaspase-6 was directly cleaved by caspase-3 and -7, but not caspase-8 or -9”.
Still for that read-out and setting: in the case of active caspase-8 it was “procaspase-6 was directly cleaved by caspase-3 and -7, but not caspase-8 or -9”; in that of active caspase-9, “procaspase-6 was directly cleaved by caspase-3 and -7, but not caspase-8 or -9”.
As for recombinant AMPKα1β1γ1 active kinase, in series [5], the “in vitro kinase assay, phosphorylation of Ser257 (FIG. 15C)” value is “Both recombinant AMPKα1 and AMPKα2 directly phosphorylated procaspase-6 at Ser^257 in vitro”. Also, the “in vitro kinase assay, phosphorylation of Ser257” value in series [1] is “Both recombinant AMPKα1 and AMPKα2 directly phosphorylated procaspase-6 at Ser^257 in vitro”.
For recombinant AMPKα2β1γ1 active kinase, the “in vitro kinase assay, phosphorylation of Ser257” value in series [1] is “Both recombinant AMPKα1 and AMPKα2 directly phosphorylated procaspase-6 at Ser^257 in vitro”.

Values taken from patent US20220184172.
